# Tests used:
# [1] = tested on: OxyR (Streptomyces gilvosporeus F607); assay: MST; details: EMSA: 20 mM Tris pH 7.5, 60 mM KCl, 2 mM EDTA, 0.5 mM DTT, 4% Ficoll, 1 ug poly(dI-dC), 20 uL, 15-25 C, 30 min, MST: 50 mM HEPES pH 7.4, 0.05% Tween 20, room …
# [2] = tested on: OxyR C212D (mimic of overoxidized OxyR) (Streptomyces gilvosporeus F607); assay: MST; details: overoxidized OxyR (C212D mimic per Results); EMSA: 20 mM Tris pH 7.5, 60 mM KCl, 2 mM EDTA, 0.5 mM DTT, 4% Ficoll, 1 ug poly(dI-dC), 20 uL, 15-25 C, 30 min; MST: 50 mM HEPES pH 7.4, 0.05% Tween 20, room …
substance,measurement,setting,value
psgnM (redox EMSA and MST),Kd,[1]; oxidized OxyR (H2O2),45.9 nM
same,Kd,[1]; reduced OxyR (DTT),135 nM
same,Kd,[2],324 nM

# Source: PMC10580950
